Data from patent WO2018095428A1 (dated 2018).

What was measured:
[1] = biological target: natural CD47 on the surface of CCRF-CEM cells (UniProt Q08722); test: flow cytometry on CCRF-CEM cells, sample at 1 ug/ml, Alexa Fluor 488 goat anti-human (H+L); blank control 30.0
[2] = biological target: human CD47-his (Sino Biological, CAT#12283-HCCH-50) (human) (UniProt Q08722); test: SPR (Biacore), KD compared with hu167-4
[3] = biological target: natural CD47 on the surface of CCRF-CEM cells (UniProt Q08722); test: flow cytometry on CCRF-CEM cells, antibody at 1 ug/ml, Alexa Fluor 488 goat anti-human (H+L); blank control 30.0
[4] = biological target: T1, human CD47-his (Sino Biological, CAT#12283-HCCH-50) (human, UniProt Q08722 19-139, limits assumed); test: SPR (Biacore): antibody captured with human Fab capture kit on CM5 chip, human CD47-his flowed over
T1 construct: Bought protein used as analyte in Biacore; also called 人CD47-his; human CD47-his antigen; not shown: His tag of the bought protein

| Molecule | flow cytometry binding signal (流式结合信号) [1] | KD ratio against hu167-4 [2] | flow cytometry binding signal (流式结合信号) [3] | KD fold difference (against ch-055) [4] | Kd [4] [nM] | koff [4] [s⁻¹] | kon [4] [M⁻¹ s⁻¹] | KD fold difference (against ch-167) [4] |
| --- | --- | --- | --- | --- | --- | --- | --- | --- |
| IgG4-Fc control | 65.1 | – | – | – | – | – | – | – |
| hu167-31 (antibody, V domains shown) VH: QVQLVQSGAEVKKPGASVKVSCKASGYTFTSYWMHWVRQAPGQGLEWMGNIDPSDSETHYNQKFKDRVTMTRDTSISTAYMELSRLRSDDTAVYYCARWGYLGRSAMDYWGQGTTVTVSS VL: DVQMTQSPSSLSASVGDRVTITCRTSKSISKFLAWYQQKPGKAPKLLIYSGSTLQSGVPSRFSGSGSGTDFTLTISSLQPEDFATYYCQQHNEYPWTFGGGTKVEIK | – | 1.3 | – | – | – | – | – | – |
| hu167-32 (antibody, V domains shown) VH: QVQLVQSGAEVKKPGASVKVSCKASGYTFTSYWMHWVRQAPGQGLEWMGNIDPSDSETHYNQKFKDRVTMTRDTSISTAYMELSRLRSDDTAVYYCARWGYLGRSAMDYWGQGTTVTVSS VL: DIQITQSPSSLSASVGDRVTITCRTSKSISKFLAWYQQKPGKAPKLLIYSGSTLQSGVPSRFSGSGSGTDFTLTISSLQPEDFATYYCQQHNEYPWTFGGGTKVEIK | – | 1.2 | – | – | – | – | – | – |
| hu167-33 (antibody, V domains shown) VH: QVQLVQSGAEVKKPGASVKVSCKASGYTFTSYWMHWVRQAPGQGLEWMGNIDPSDSETHYNQKFKDRVTMTRDTSISTAYMELSRLRSDDTAVYYCARWGYLGRSAMDYWGQGTTVTVSS VL: DVQITQSPSSLSASVGDRVTITCRTSKSISKFLAWYQQKPGKAPKLLIYSGSTLQSGVPSRFSGSGSGTDFTLTISSLQPEDFATYYCQQHNEYPWTFGGGTKVEIK | – | 0.98 | 27800 | – | – | – | – | – |
| chimeric antibody ch-055 (antibody, V domains shown) VH: QVLLQQSGPELVQPGASVKISCKASGYSFTSSYLHWVKQRPGQGLDWIGWIYPESGNTKYNERFKGKATLTADTSSSTAYMQLSSLTSEDSAVYYCSRRGDVFFAYWGQGTTLTVSS VL: DIVMTQSPSYLTVTAGEKVTMSCKSSQSLLTSGKQKNYLTWYQQKPGQPPKLLIYWASTRESGVPERFRGSGSGTDFTLTISSVQAEDLAVYYCQNDYSYPLTFGAGTKLELN | – | – | – | 1 | 0.167 | 0.000389 | 2.32e+06 | – |
| hu055-1 (antibody, V domains shown) VH: QVQLVQSGAEVKKPGASVKVSCKASGYTFTSSYLHWVRQAPGQRLEWMGWIYPESGNTKYNERFKGRVTITRDTSASTAYMELSSLRSEDTAVYYCARRGDVFFAYWGQGTTVTVSS VL: DIVMTQSPDSLAVSLGERATINCKSSQSLLTSGKQKNYLTWYQQKPGQPPKLLIYWASTRESGVPDRFSGSGSGTDFTLTISSLQAEDVAVYYCQNDYSYPLTFGQGTKLEIK | – | – | – | 3.5 | 0.585 | 0.000976 | 1.67e+06 | – |
| hu055-8 (antibody, V domains shown) VH: QVQLVQSGAEVKKPGASVKVSCKASGYTFTSSYLHWVRQAPGQRLEWMGWIYPESGNTKYNERFKGRVTITRDTSASTAYMELSSLRSEDTAVYYCARRGDVFFAYWGQGTTVTVSS VL: DIVMTQSPDSLAVSLGERATINCKSSQSLLTSGKQKNYLTWYQQKPGQPPKLLIYWASTRESGVPERFSGSGSGTDFTLTISSLQAEDVAVYYCQNDYSYPLTFGQGTKLEIK | – | – | – | 3.7 | 0.617 | 0.000987 | 1.6e+06 | – |
| hu055-5 (antibody, V domains shown) VH: QVQLVQSGAEVKKPGASVKVSCKASGYTFTSSYLHWVRQAPGQRLDWIGWIYPESGNTKYNERFKGRATLTADTSASTAYMELSSLRSEDTAVYYCARRGDVFFAYWGQGTTVTVSS VL: DIVMTQSPDSLAVSLGERATINCKSSQSLLTSGKQKNYLTWYQQKPGQPPKLLIYWASTRESGVPDRFSGSGSGTDFTLTISSLQAEDVAVYYCQNDYSYPLTFGQGTKLEIKR | – | – | – | 1.1 | 0.182 | 0.000382 | 2.1e+06 | – |
| chimeric antibody ch-167 (antibody, V domains shown) VH: QVQLQQPGAELVRPGSSVKLSCKASGYTFTSYWMHWVKQRPIQGLEWVGNIDPSDSETHYNQKFKDKATLTVDKSSSTAYMQLSSLTSEDSAVYYCARWGYLGRSAMDYWGQGTSVTVSS VL: DVQITQSPSYLAASPGETITINCRTSKSISKFLAWYQEKPGKTHKLLIYSGSTLQSGIPSRFSGSGSGTDFTLTISSLEPEDFAMYYCQQHNEYPWTFGGGTKLEIK | – | – | – | – | 0.325 | 0.000558 | 1.72e+06 | 1 |
| hu167-1 (antibody, V domains shown) VH: QVQLVQSGAEVKKPGASVKVSCKASGYTFTSYWMHWVRQAPGQGLEWMGNIDPSDSETHYNQKFKDRVTMTRDTSISTAYMELSRLRSDDTAVYYCARWGYLGRSAMDYWGQGTTVTVSS VL: DIQMTQSPSSLSASVGDRVTITCRTSKSISKFLAWYQQKPGKAPKLLIYSGSTLQSGVPSRFSGSGSGTDFTLTISSLQPEDFATYYCQQHNEYPWTFGGGTKVEIK | – | – | – | – | 0.664 | 0.000991 | 1.49e+06 | 2.04 |
